Data reported in patent US20220227882A1 (TRUSTEES OF TUFTS COLLEGE, published 2022).
Numbering of substitutions follows the chain as printed.

Legend:
[1] = molecular target: T1, R482A (Homo sapiens, UniProt P78325); assay: high-throughput flow cytometry, HEK293 cells with mutant ADAM8, high stringency; range in parentheses
T1 construct: expressed on HEK293 cells; also called human ADAM8 point mutant R482A
T1 sequence (ADAM8, looked up): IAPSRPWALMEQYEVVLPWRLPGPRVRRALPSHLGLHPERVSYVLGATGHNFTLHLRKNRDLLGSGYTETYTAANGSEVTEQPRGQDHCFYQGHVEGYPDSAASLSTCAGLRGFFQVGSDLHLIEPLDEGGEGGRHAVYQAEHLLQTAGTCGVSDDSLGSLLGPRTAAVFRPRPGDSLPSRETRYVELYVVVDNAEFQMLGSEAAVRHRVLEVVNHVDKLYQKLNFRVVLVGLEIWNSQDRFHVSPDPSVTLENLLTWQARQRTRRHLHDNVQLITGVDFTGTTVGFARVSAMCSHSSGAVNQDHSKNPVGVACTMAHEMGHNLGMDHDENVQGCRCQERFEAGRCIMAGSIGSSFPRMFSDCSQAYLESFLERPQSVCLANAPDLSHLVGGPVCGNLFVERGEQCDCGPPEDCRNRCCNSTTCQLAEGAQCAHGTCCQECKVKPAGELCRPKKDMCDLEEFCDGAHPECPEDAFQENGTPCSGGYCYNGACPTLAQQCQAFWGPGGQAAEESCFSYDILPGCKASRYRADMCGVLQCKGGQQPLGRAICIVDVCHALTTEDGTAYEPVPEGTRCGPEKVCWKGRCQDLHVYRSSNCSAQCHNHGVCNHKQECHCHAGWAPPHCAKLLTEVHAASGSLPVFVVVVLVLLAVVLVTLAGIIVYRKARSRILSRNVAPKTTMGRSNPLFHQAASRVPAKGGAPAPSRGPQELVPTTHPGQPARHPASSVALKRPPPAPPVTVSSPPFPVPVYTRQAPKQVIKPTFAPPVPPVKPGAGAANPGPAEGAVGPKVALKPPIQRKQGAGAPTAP
Procedure: (§1) A variety of experimental parameters were optimized for high-throughput flow cytometry including blocking buffer, and primary and secondary antibody concentrations, to identify the optimal conditions for screening. Through these studies ADP2 and ADP13 were determined to be high affinity binding antibodies.
(§2) Thus, for these studies antigen-binding fragments (Fabs) of ADP2 and ADP13, which bind with lower affinity than the full antibody, were generated. In addition, higher binding stringency conditions were tested, such as increased pH, salinity, and temperature, and/or increased washing, to weaken binding sufficiently to allow identification of critical binding residues in flow cytometry. The final experimental flow cytometry conditions were: primary antibody incubation with ADP2 Fab (0.50 μg/ml), ADP13 Fab (5.00 μg/ml) and Control Ab (0.16 μg/ml) for 60 minutes in flow cytometry buffer containing 10% goat serum in PBS (Ca²⁺ and Mg²⁺ free). […] Samples were washed three times after primary antibody incubation and twice after secondary antibody incubation with PBS (Ca²⁺ and Mg′ free). Next, HEK293 cells expressing WT or mutated ADAM8 proteins or EV DNA were incubated with ADP2 or ADP13 Fabs or Control Ab at their optimal concentrations. Fab binding was detected using Alexa Fluor 488-conjugated secondary antibodies and mean cellular fluorescence determined using the Intellicyt iQue flow cytometry platform. […] This counter-screen strategy facilitates the exclusion of mutants that are locally misfolded or that have an expression defect. Binding of each test Fab to each mutant clone in the alanine scanning library was determined, in duplicate, by high-throughput flow cytometry.

[2] = molecular target: T2, V459A (Homo sapiens, UniProt P78325); assay: as above
T2 construct: expressed on HEK293 cells; also called human ADAM8 point mutant V459A
T2 sequence (ADAM8, looked up): T1 sequence (ADAM8, looked up) with V443A, A466R
Procedure: as §1, §2

B1: ADP2 Fab (Fab, V domains shown)
VH: EVKLVESGGGLVQPGGSLSLSCAASGFSFPDYYMSWVRQPPGKALEWLGFIRDSANGYTTEYIASVKGRFTFSRDNSQSILYLQMNALRAEDSATYYCARYSRYYGMDYWGQGTSVTVSS
VL: SIVMTQTPKILLVSAGDRVTITCKASQTVNYDVAWYQQKPGQSPKPVIYFASNRYTGVPDRFTGSGFGTDFTFTISTVQAEDLAVYFCQQDYSAPWTFGGGTKLEIK
Binding Reactivity (% WT) [1]: 113 % WT | Binding Reactivity (% WT) [2]: 55.6 % WT
